Laboratory results reported in the supplement of paper PMC7877785.
± gives the uncertainty stated by the source.

Assay: self-splicing fitness, log relative to wild type (ln ratio); higher = more splicing; Tetrahymena group I intron in knt gene, E. coli kanamycin selection, DiMSum; sequences stand for … in CUCUCU…GGAGGGAAAAGUUAUCAGGCAUGCACCUGGUAGCUAGUCUUUAAACCAAUAGAUUGCAUCGGUUUAAAAGGCAAGACCGUCAAAUUGCGGGAAAGGGGUCAACAGCCGUUCAGUACCAAGUCUCAGGGGAAACUUUGAGAUGGCCUUGCAAAGGGUAUGGUAAUAAGCUGACGGACAUGGUCCUAACCACGCAGCCAAGUCCUAAGUCAACAGAUCUUCUGUUGAUAUGGAUGCAGUUCACAGACUAAAUGUCGGUCGGGGAAGAUGUAUUCUUCUCAUAAGAUAUAGUCGGACCUCUCCUUAAUGGGAGCUAGCGGAUGAAGUGAUGCAACACUGGAGCCGCUGGGAACUAAUUUGUAUGCGAAAGUAUAUUGAUUAGUUUUGGAGUACUCGUGGUCG
In short: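 Library with all eight P1ex-region intron nucleotides randomised, intron inside the knt kanamycin-resistance gene on pET-22b(+), in E. coli BL21(DE3). Cells grew overnight at 37°C or 30°C on LB agar with or without 25 μg/mL kanamycin (plus 100 μg/mL carbenicillin, 50 μM IPTG, 0.2% rhamnose), in six replicate transformations. Pooled colonies were amplicon-sequenced on Illumina HiSeq 2500. DiMSum fitness is the error-weighted combination of wild-type-normalised replicate fold changes, kanamycin versus none.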

Sequence | self-splicing fitness (ln) (30 °C) | self-splicing fitness (ln) (37 °C)
UUAAAGCAAUAUUACGAGGA | -1.84 ± 0.13 | -0.545 ± 0.16
UUAAAGCAAUAUUACGAGUG | -0.826 ± 0.058 | -0.0213 ± 0.08
UUAAAGCAAUAUUACGCAUA | -0.633 ± 0.072 | 0.164 ± 0.11
UUAAAGCAAUAUUACGCCCC | -0.451 ± 0.27 | 0.901 ± 0.38
UUAAAGCAAUAUUACGCCCU | -0.437 ± 0.11 | 0.33 ± 0.14
UUAAAGCAAUAUUACGCCUG | 0.63 ± 0.16 | 1 ± 0.17
UUAAAGCAAUAUUACGCUAC | -3.55 ± 0.26 | -1.91 ± 0.2
UUAAAGCAAUAUUACGGAUA | -0.925 ± 0.13 | -0.197 ± 0.16
UUAAAGCAAUAUUACGGCAA | 0.101 ± 0.12 | 0.186 ± 0.16
UUAAAGCAAUAUUACGGCGU | -0.257 ± 0.068 | 0.33 ± 0.09
UUAAAGCAAUAUUACGGGUU | -3.04 ± 0.15 | -1.46 ± 0.13
UUAAAGCAAUAUUACGGUUG | -1.13 ± 0.071 | -0.199 ± 0.089
UUAAAGCAAUAUUACGUAAG | -0.67 ± 0.082 | -0.258 ± 0.11
UUAAAGCAAUAUUACGUAUC | -2.17 ± 0.12 | -1.87 ± 0.16
UUAAAGCAAUAUUACGUCUG | 0.0385 ± 0.075 | 0.255 ± 0.096
UUAAAGCAAUAUUACGUUAG | -0.59 ± 0.095 | -0.125 ± 0.097
UUACAGCAAUAUUACGAAGC |  | -1.41 ± 0.4
UUACAGCAAUAUUACGACAU | -1.971 ± 0.014 | -1.02 ± 0.033
UUACAGCAAUAUUACGACUU | -1.06 ± 0.11 | -0.932 ± 0.11
UUACAGCAAUAUUACGAGCU | -3.55 ± 0.31 | -3.12 ± 0.34
UUACAGCAAUAUUACGAGUA | -1.5 ± 0.14 | -0.933 ± 0.11
UUACAGCAAUAUUACGAUUA | -0.238 ± 0.094 | -0.0645 ± 0.089
UUACAGCAAUAUUACGCAGC | -4.38 ± 0.26 | -3.01 ± 0.16
UUACAGCAAUAUUACGCCUU | -2.35 ± 0.22 | -0.83 ± 0.17
UUACAGCAAUAUUACGGAGA | -1.79 ± 0.1 | -1.11 ± 0.13
UUACAGCAAUAUUACGGAGG | -2.31 ± 0.22 | -2.1 ± 0.36

Sequence | self-splicing fitness (ln) (30 °C) | self-splicing fitness (ln) (37 °C)
UUACAGCAAUAUUACGGGCC | -3.28 ± 0.19 | -3.55 ± 0.42
UUACAGCAAUAUUACGGGGU | -4.73 ± 0.22 | -3.21 ± 0.17
UUACAGCAAUAUUACGGGUG | -1.05 ± 0.061 | -0.414 ± 0.077
UUACAGCAAUAUUACGGUGU | -4.36 ± 0.46 | -2.23 ± 0.21
UUACAGCAAUAUUACGUAAG | -0.248 ± 0.068 | -0.257 ± 0.097
UUACAGCAAUAUUACGUACA | -0.278 ± 0.087 | 0.137 ± 0.1
UUACAGCAAUAUUACGUACU | -0.865 ± 0.1 | -0.831 ± 0.096
UUACAGCAAUAUUACGUAGA | -1.01 ± 0.067 | -0.372 ± 0.081
UUACAGCAAUAUUACGUCCA | -0.325 ± 0.096 | -0.181 ± 0.11
UUACAGCAAUAUUACGUGGU | -3.33 ± 0.13 | -2.36 ± 0.13
UUACAGCAAUAUUACGUGUC | -3.93 ± 0.17 | -3.21 ± 0.21
UUACAGCAAUAUUACGUUCC | -3.34 ± 0.26 | -2.22 ± 0.46
UUACAGCAAUAUUACGUUGG | -2.6 ± 0.12 | -1.69 ± 0.13
UUACAGCAAUAUUACGUUGU | -2.98 ± 0.13 | -2.57 ± 0.16
UUAGAGCAAUAUUACGAAAU | -3.77 ± 0.34 | -3.04 ± 0.47
UUAGAGCAAUAUUACGACCC | -2.63 ± 0.49 | -1.74 ± 0.49
UUAGAGCAAUAUUACGACUA | -1.13 ± 0.31 | -0.676 ± 0.32
UUAGAGCAAUAUUACGAGUU |  | -2.05 ± 0.39
UUAGAGCAAUAUUACGAUGA | 0.174 ± 0.1 | 0.371 ± 0.14
UUAGAGCAAUAUUACGAUUA | -1.07 ± 0.11 | -0.181 ± 0.13
UUAGAGCAAUAUUACGAUUC | -2.62 ± 0.25 | -2.44 ± 0.35
UUAGAGCAAUAUUACGCAGU | -3.64 ± 0.32 | -3.17 ± 0.47
UUAGAGCAAUAUUACGCCAG | -0.402 ± 0.15 | 0.228 ± 0.23
UUAGAGCAAUAUUACGCCCA | -1.04 ± 0.19 | -0.676 ± 0.3
UUAGAGCAAUAUUACGCUAA | -1.93 ± 0.24 | -0.588 ± 0.36
UUAGAGCAAUAUUACGCUUU | -3.62 ± 0.37 | -2.02 ± 0.32

Sequence | self-splicing fitness (ln) (30 °C) | self-splicing fitness (ln) (37 °C)
UUAGAGCAAUAUUACGGAAU | -3.79 ± 0.29 | -2.81 ± 0.25
UUAGAGCAAUAUUACGGCCG | -0.608 ± 0.15 | -0.234 ± 0.23
UUAGAGCAAUAUUACGGCGU | -1.73 ± 0.14 | -1.12 ± 0.22
UUAGAGCAAUAUUACGGCUA | -0.0336 ± 0.14 | 0.4 ± 0.17
UUAGAGCAAUAUUACGGGCU | -2.53 ± 0.32 | 
UUAGAGCAAUAUUACGUAUC | -3.29 ± 0.48 | -1.22 ± 0.34
UUAGAGCAAUAUUACGUAUU | -5.06 ± 0.45 | -2.91 ± 0.35
UUAGAGCAAUAUUACGUCGU | -3.46 ± 0.4 | -1.26 ± 0.21
UUAGAGCAAUAUUACGUCUG | -0.606 ± 0.11 | -0.672 ± 0.12
UUAGAGCAAUAUUACGUGUG | -1.27 ± 0.09 | -1.11 ± 0.14
UUAGAGCAAUAUUACGUUCA | -0.27 ± 0.14 | -0.536 ± 0.17
UUAGAGCAAUAUUACGUUUC | -3.04 ± 0.2 | 
UUAUAGCAAUAUUACGAAAG | -3.47 ± 0.37 | -2.69 ± 0.38
UUAUAGCAAUAUUACGAAGU | -3.61 ± 0.45 | -2.44 ± 0.28
UUAUAGCAAUAUUACGACUC | -1.94 ± 0.19 | -1.94 ± 0.24
UUAUAGCAAUAUUACGAGAG |  | -0.556 ± 0.26
UUAUAGCAAUAUUACGAGGU |  | -2.14 ± 0.37
UUAUAGCAAUAUUACGAUAG | -0.194 ± 0.16 | -0.527 ± 0.16
UUAUAGCAAUAUUACGCACG | -1.18 ± 0.15 | -0.14 ± 0.18
UUAUAGCAAUAUUACGCGAU | -2.8 ± 0.37 | -2.23 ± 0.46
UUAUAGCAAUAUUACGCGCC | -1.96 ± 0.23 | -2.14 ± 0.3
UUAUAGCAAUAUUACGCUCA | -0.877 ± 0.38 | -1.09 ± 0.42
UUAUAGCAAUAUUACGCUCG | 0.392 ± 0.25 | 0.206 ± 0.22
UUAUAGCAAUAUUACGGAAG | -2.21 ± 0.26 | -1.77 ± 0.26
UUAUAGCAAUAUUACGGAUG | -2.85 ± 0.16 | -1.09 ± 0.15
